The values below come from US20200103410A1 (ECS PROGASTRIN, published 2020).

T1: human progastrin (full length) (human)
T1 construct: also called hPG; PG
T1 chain: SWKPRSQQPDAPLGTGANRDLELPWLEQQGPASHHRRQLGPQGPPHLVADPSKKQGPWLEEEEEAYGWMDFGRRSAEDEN

B1: mAb16 (hybridoma 1E9D9B6) (antibody, V domains shown)
VH: QVQLQQSGAELVKPGASVKLSCKASGYTFTSYYMYWVKQRPGQGLEWIGEINPSNGGTNFNEKFKSKATLTVDKSSSTAYMQLSSLTSEDSAVYYCTRGGYYPFDYWGQGTTLTVSS
VL: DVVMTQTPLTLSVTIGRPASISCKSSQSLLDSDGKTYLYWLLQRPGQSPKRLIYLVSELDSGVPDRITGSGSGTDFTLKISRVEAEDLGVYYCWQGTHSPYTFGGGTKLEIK
notes: Murine monoclonal antibody
B2: mAb13 (hybridoma 2C6C3C7) (antibody, V domains shown)
VH: EVQLVESGGGLVQPGGSLKLSCAASGFIFSSYGMSWVRQSPDRRLELVASINTFGDRTYYPDSVKGRFTISRDNAKNTLYLQMTSLKSEDTAIYYCARGTGTYWGQGTTLTVSS
VL: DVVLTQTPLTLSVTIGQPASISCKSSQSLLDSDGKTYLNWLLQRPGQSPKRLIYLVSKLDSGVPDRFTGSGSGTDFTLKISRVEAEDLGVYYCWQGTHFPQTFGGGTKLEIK
notes: Murine monoclonal antibody
B3: mAb4 (hybridoma 20D2C3G2) (antibody, V domains shown)
VH: QVQLQQSGAELMKPGASVKISCKATGYTFSSSWIEWLKQRPGHGLEWIGEFLPGSGSTDYNEKFKGKATFTADTSSDTAYMLLSSLTSEDSAVYYCATDGNYDWFAYWGQGTLVTVSA
VL: DLVMTQTPLSLPVSLGDQASISCRSSQSLVHSSGVTYLHWYLQKPGQSPKLLIYKVSNRFSGVPDRFSGSGSGTDFTLKISRVEAEDLGVYFCSQSTHVPPTFGSGTKLEIK
notes: Murine monoclonal antibody
B4: mAb19 (hybridoma 1B3B4F11) (antibody, V domains shown)
VH: DVQLQESGPGLVKPSQSLSLTCTVTGYSITSDYAWNWIRQFPGNKLEWMGYISFSGYTSYNPSLKSRISVTRDTSRNQFFLQLTSVTTEDTATYYCAREVNYGDSYHFDYWGQGTIVTVSS
VL: QLALTQSSSASFSLGASAKLTCTLSSQHRTYTIEWYQQQSLKPPKYVMEVKKDGSHSTGHGIPDRFSGSSSGADRYLSISNIQPEDEAIYICGVGDAIKGQSVFVFGGGTKVTVL
notes: Murine monoclonal antibody
B5: mAb3 (hybridoma 6B5B11C10) (antibody, V domains shown)
VH: EVQLQQSGTVLARPGASVKMSCKASGYIFTSYWVHWVKQRPGQGLEWIGGFYPGNSDSRYNQKFKGKATLTAVTSASTAYMDLSSLTNEDSAVYFCTRRDSPQYWGQGTTLTVSS
VL: DVLMTQTPLSLPVSLGDQASISCRSSQSIVHSNGNTYLEWYLQKPGQSPKLLIYKVSNRFSGVPDRFSGSGSGTDFTLKISRLEAEDLGVYYCFQGSHVPFTFGGGTKLEIK
notes: Murine monoclonal antibody

The target in the test is T1, human progastrin (full length). In words: epitope mapping (no details given).
Take B1: the binding result is reported as “binds”. Take B2: the binding result was “binds”. B3: the binding result is on record as “binds”.

Regarding B4, the binding result was “binds”. Take B5: the binding result is listed as “binds”.
